Test results reported in patent publication US20100260677A1, “METHODS AND SYSTEMS FOR TREATMENT AND/OR DIAGNOSIS” (Massachusetts Institute of Technology, priority 2009, published 2010).
Each block holds one molecule with its values, some of them ahead of it. Positions of bridges follow the written chain, without caps; N, C: chain ends. Non-standard residues stand in square brackets, D forms with d. No end group written: not given here. Hyp = O=C(O)[C@@H]1C[C@@H](O)CN1; cY = chlorotyrosine; Ahx = NCCCCCC(=O)O

Columns and labels:
MDA-MB-435 tumors [1] = test: Nanoworm receiver homing to externally heated tumors; assay type: in vivo, mice; settings: 24 hours
Experimental: (§1) Quantifying NW homing to tumors: Mixtures of NIR-fluorophore-labeled, targeted and control NWs (bearing VT750 and VT680 or VT680 and VT750, respectively) were co-adminstered intravenously in PBS (2 mg Fe/kg) to tumor-bearing nu/nu mice to provide an internal control reference for coagulation-specific NW homing. At 24 hours post-NW injection, mice were sacrificed and organs were analyzed for both NIR-fluorophores (LI-COR Odyssey Infrared Imaging System). For integrated nanoparticle system characterization, mice were additionally imaged under isofluorane anaesthetic before euthanization using a whole animal fluorescence reflectance imaging system (Xenogen, IVIS Imaging System) to visualize the specificity of NW homing to tumors. […] For initial characterization, levels of targeted and control NW homing were plotted by comparing the average NW fluorescence in heated tumors versus unheated tumors (n=4 mice at each temperature). For integrated network evaluation, levels were plotted by comparing the average targeted and untargeted NW fluorescence in irradiated tumors versus un-irradiated tumors (n=4 mice for all conditions).
Having observed that external heating of tumors produced localized coagulation, this response was utilized in an assay to assess the ability of receivers to target tumor coagulation prior to integrating them with signaling components. […]

MDA-MB-435 tumors [2] = test: Integrated PEG-NR signaling / FXIII-NW receiver communication, NIR fluorescence imaging; assay type: in vivo, mice; settings: PEG-NRs 10 mg Au/kg, 72 h later NWs i.v. + 810 nm ~0.75 W/cm^2 20 min; imaging at 96 hours
Experimental: as §1
PEG-NRs (or saline) were intravenously-injected into mice bearing bilateral MDA-MB-435 tumors. […]

MDA-MB-435 tumor = test: Autonomous communication between tTF signaling components and FXIII-NW receivers; assay type: in vivo, mice; settings: tTF-RGD+FXIII-NWs plus heparin 800 units/kg i.v. + 500 units/kg i.p.
Experimental: For autonomously-communicating nanosystems, NIR-fluorophore-labeled peptide-bearing NWs (bearing VT750 fluorophores) were intravenously (2 mg Fe/kg) in PBS to unanaesthetized MDA-MB-435 tumor-bearing nu/nu mice alone or alongside various tTF signaling components (25 micrograms). At 24 hours post-NW injection, the mice were sacrificed and organs were analyzed for NIR receiver fluorescence (LI-COR Odyssey Infrared Imaging System). For intraoperative fluorescent tumor imaging, mice were anaesthesized and tumours were surgically exposed to reveal detailed tumor fluorescence (LI-COR). The levels of NW homing to tumors were plotted by comparing the average NW fluorescence in fully-excised tumours (n=4 mice at each condition). For whole animal organ distribution, tTF-RGD signaling components were administered intraperitoneally (25 micrograms) and FXIII-NWs were administered intravenously (2 mg Fe/kg) to unanaesthetized mice bearing an MDA-MB-435 tumor.
Nu/nu mice bearing a single MDA-MB-435 tumor were intravenously injected with communicating (tTF-RGD+FXIII-NWs) or control (tTF-RGD+control-NWs) systems, FXIII-NWs alone, or NWs targeted by the peptide used to direct signaling component tumor homing (1 mg/kg tTF-RGD). At 24 hours post-injection, tumors were surgically exposed for fluorescent intraoperative imaging of NW homing. […]

MDA-MB-435 tumors [3] = test: Small molecule vascular disrupting agents: induction of coagulation in tumors (fibrinogen/albumin tropism); assay type: in vivo, mice; settings: i.p. DMXAA 20 mg/kg or colchicine 1 mg/kg; 24 hours
Experimental: Mice bearing MDA-MB-435 tumors were intravenously injected with a mixture of fibrinogen and albumin that had been labeled with unique near-infrared fluorophores (VT750 and VT680, respectively). Immediately after injection, mice were intraperitoneally injected with DMXAA (20 mg/kg) in 200 microliters of sodium bicarbonate buffer or vehicle. At 24 hours after injections, mice were sacrificed and organs removed for fluorescent quantification of protein tropism to tumors (* indicates p=0.014; n=6). […] Mice bearing bilateral MDA-MB-435 tumors were intravenously injected with a mixture of fibrinogen and albumin that had been labeled with unique near-infrared fluorophores (VT750 and VT680, respectively). […] At 24 hours after injections, mice were sacrificed and organs removed for fluorescent quantification of protein tropism to tumors.

ICAM-1 = test: Induction of ICAM-1 expression in HUVECs (immuno-staining); assay type: cell-based, Human; settings: 10 ng/ml overnight
Experimental: This example illustrates the induction of ICAM-1 expression in HUVECs. […] Human Umbilical Vein Endothelial Cells (HUVECs) were cultured on slides coated with gelatin in Medium 200 supplemented with LSGS (Cascade Biologics/Invitrogen). One day after plating, cells were treated with 10 ng/ml TNF-alpha or vehicle alone overnight. The next day cells were fixed and immuno-stained for ICAM-1 expression (antibody from Cell Signaling).

[4] = molecular target: fibrin (polymerized fibrin deposited in heated tumors of mice) (mouse, UniProt E9PV24 37-789; Q8K0E8 35-481; Q8VCM7 26-436, limits assumed); test: cell-based or functional assay
[5] = molecular target: T1, coagulation transglutaminase Factor XIII (mouse, UniProt Q8BH61 39-732); test: cell-based or functional assay
T1 sequence (looked up): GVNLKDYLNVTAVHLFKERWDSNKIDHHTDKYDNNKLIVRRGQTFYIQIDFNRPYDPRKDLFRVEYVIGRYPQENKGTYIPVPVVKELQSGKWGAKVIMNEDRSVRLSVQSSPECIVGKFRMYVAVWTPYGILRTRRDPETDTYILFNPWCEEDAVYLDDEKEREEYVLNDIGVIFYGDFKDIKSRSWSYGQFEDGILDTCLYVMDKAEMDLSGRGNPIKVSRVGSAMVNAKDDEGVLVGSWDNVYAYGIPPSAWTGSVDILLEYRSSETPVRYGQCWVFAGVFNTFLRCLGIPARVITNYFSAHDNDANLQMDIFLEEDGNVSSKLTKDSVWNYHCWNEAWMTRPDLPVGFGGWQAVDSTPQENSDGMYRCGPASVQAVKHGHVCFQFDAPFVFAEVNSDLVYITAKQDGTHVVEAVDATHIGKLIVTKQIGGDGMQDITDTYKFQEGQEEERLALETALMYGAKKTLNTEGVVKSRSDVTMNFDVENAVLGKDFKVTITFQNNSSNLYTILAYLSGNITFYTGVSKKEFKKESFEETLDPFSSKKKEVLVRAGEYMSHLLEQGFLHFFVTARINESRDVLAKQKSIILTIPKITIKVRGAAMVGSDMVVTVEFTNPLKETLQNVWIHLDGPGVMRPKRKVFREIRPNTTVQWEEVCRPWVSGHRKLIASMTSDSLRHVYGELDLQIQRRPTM

fibrin (polymerized fibrin deposited in heated tumors of mice), sequence (E9PV24 37-789 limits assumed, chain 1 of 3): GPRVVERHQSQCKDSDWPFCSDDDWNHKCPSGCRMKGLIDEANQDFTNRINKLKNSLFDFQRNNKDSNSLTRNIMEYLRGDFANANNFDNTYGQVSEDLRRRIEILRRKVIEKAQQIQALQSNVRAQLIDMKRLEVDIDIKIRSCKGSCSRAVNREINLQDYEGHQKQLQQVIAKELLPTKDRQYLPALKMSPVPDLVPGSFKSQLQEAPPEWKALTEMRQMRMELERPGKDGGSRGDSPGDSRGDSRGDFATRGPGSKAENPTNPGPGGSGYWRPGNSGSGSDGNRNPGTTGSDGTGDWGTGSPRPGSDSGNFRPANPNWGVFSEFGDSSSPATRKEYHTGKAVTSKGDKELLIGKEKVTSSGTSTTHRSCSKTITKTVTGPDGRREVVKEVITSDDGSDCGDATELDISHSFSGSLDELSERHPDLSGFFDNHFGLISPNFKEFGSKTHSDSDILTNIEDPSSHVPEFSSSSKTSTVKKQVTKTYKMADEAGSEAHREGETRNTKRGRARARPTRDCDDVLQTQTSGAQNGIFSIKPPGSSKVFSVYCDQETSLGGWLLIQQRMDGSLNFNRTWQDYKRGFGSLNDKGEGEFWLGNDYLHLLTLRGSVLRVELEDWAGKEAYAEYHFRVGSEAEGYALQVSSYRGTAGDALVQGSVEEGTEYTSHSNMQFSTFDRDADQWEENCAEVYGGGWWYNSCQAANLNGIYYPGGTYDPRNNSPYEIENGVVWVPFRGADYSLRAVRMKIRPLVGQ
fibrin (polymerized fibrin deposited in heated tumors of mice), sequence (Q8K0E8 35-481 limits assumed, chain 2 of 3): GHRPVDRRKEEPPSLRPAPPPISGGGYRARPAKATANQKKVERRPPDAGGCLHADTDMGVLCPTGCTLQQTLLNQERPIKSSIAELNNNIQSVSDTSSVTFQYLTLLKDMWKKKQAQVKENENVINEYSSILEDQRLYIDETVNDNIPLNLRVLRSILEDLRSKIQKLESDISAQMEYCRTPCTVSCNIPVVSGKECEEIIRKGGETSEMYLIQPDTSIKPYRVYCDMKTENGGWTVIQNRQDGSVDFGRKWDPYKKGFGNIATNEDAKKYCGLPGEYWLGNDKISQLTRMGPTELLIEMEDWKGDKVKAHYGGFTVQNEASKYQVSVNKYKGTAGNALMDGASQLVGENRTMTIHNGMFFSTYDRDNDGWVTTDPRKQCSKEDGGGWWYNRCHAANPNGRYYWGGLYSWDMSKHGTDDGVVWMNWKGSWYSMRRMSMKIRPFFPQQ
fibrin (polymerized fibrin deposited in heated tumors of mice), sequence (Q8VCM7 26-436 limits assumed, chain 3 of 3): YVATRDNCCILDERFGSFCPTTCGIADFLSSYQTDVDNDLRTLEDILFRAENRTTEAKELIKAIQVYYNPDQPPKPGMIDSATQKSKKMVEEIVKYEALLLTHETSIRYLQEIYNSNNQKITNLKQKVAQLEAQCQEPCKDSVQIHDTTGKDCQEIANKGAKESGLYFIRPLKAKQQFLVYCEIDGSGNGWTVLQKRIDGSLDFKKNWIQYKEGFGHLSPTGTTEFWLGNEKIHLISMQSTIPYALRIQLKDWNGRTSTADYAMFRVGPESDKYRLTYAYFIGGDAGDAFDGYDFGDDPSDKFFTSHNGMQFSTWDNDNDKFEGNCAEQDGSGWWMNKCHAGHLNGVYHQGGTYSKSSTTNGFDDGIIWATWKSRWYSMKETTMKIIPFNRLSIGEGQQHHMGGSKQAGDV

Molecule: FXIII-NWs: magnetofluorescent iron oxide nanoworms derivatized with a peptide substrate for coagulation transglutaminase Factor XIII (SEQ ID NO: 2) (GNQEQVSPLTLLK[Ahx]CK-Fluorescein; not fully specified (residue 15))
- histopathological distribution in heated tumors compared with controls (MDA-MB-435 tumors [1]; heated tumors): marked extravasation and interstitial spreading
- increase in tumor targeting, heated compared to unheated tumors (MDA-MB-435 tumors [1]; one tumor heated at 45° C. in water bath 20 min): nearly an order of magnitude
- increase in accumulation in NR-heated tumors above unirradiated contralateral tumors and tumors on saline-injected mice (MDA-MB-435 tumors [2]): over an order of magnitude

Molecule: heparin
- amplified vascular targeting when coagulation inhibitor administered alongside the integrated system (MDA-MB-435 tumor): absent

Molecule: Cc1ccc2c(=O)c3cccc(CC(=O)O)c3oc2c1C [DMXAA, 5,6-dimethylxanthenone-4-acetic acid]
- induction of coagulation in tumors (MDA-MB-435 tumors [3]): specifically induced coagulation in tumors

Molecule: TNF-alpha
- ICAM-1 expression on the cell surface (ICAM-1): upregulation of ICAM-1 on the cell surface

- targeting of fibrin-binding receiving NWs to heated tumors against unheated tumors (in vivo, NIR fluorescence) [4]: ~10 fold
B1: fibrin-binding peptide Ac-d-d-d-G-Y-e-C-hyP-cY-G-L-C-Y-I-Q-K-Fluorescein (peptide)
peptide: Ac-[dD][dD][dD]GY[dE]C[Hyp][cY]GLCYIQK-Fluorescein
modifications: disulfide 7-12 (inferred); not fully specified; printed as Ac-d-d-d-G-Y-e-C-hyP-cY-G-L-C-Y-I-Q-K-Fluorescein; also: attached to nanoworm via the Lys with NHS-PEO5-NHS linker

- accumulation of FXIII-substrate receiving NWs in tumors heated to 45 C against unheated tumors (in vivo, NIR fluorescence at 24 hours) [5]: ~10 fold
- accumulation of FXIII-targeted NWs in nanorod-heated tumors against unirradiated contralateral tumors and tumors on saline-injected mice (in vivo, whole-animal fluorescence) [5]: > 10 fold
- doxorubicin accumulation in tumors heated to 45 C against unheated controls, FXIII-substrate liposomes (in vivo) [5]: > 40 fold
- doxorubicin accumulation in tumors, NR signaling components plus FXIII-LP receivers against the LPs alone (in vivo) [5]: > 40 fold
B2: peptide substrate for the transglutaminase Factor XIII, G-N-Q-E-Q-V-S-P-L-T-L-L-K-X-C-(K-Fluorescein) (peptide)
peptide: GNQEQVSPLTLLK[Ahx]CK-Fluorescein
modifications: also: coupled through the exogenous Cys to nanoworm or liposome carrier
